Assays:
[1] = molecular target: CsgE W48A (E. coli MC4100); test: native gel or EMSA; native PAGE of purified CsgE (monomer peak) incubated at 4°C or 25°C for various times
[2] = molecular target: CsgE F79A (E. coli MC4100); test: as above
[3] = molecular target: 6x-His-tagged CsgA lacking the 20-residue N-terminal signal sequence (E. coli) (UniProt P28307)
P0AE95 [4] = test: SEC; Superdex 200 10/300, 50 mM potassium phosphate, 150 mM NaCl, pH 7.4; purified CsgE (20 µM) incubated at 37°C; monomer to nonamer and larger oligomers
P0AE95 [5] = test: SEC; Superdex 200 10/300, 50 mM potassium phosphate, 150 mM NaCl, pH 7.4; purified CsgE (20 µM) incubated at 25°C for 5 h to 28 h; monomer to nonamer
P0AE95 [6] = test: SEC-MALS; Superdex 200 Increase 10/300 GL, 0.3 ml/min; protein at 2 mg/ml in 50 mM KHPO4 pH 7.3 with and without 150 mM NaCl
[7] = molecular target: T1, 6x-His-tagged CsgA lacking the 20-residue N-terminal signal sequence (E. coli, UniProt P28307 21-151); test: NMR titration; 1H-15N HSQC chemical shift perturbation at one ratio: 15N-labeled WT CsgE (80 µM, 0.4 M arginine) with or without unlabeled CsgA (80 µM); details: both partners purified
T1 construct: Freshly purified, unfolded monomer; also called unlabeled CsgA; monomeric CsgA

[8] = molecular target: T2, WT CsgE (6x-His-tagged, E. coli MC4100) (E. coli MC4100), P0AE95; test: SEC; Superdex 200 10/300, 50 mM potassium phosphate, 150 mM NaCl, pH 7.4; purified CsgE (20 µM) incubated at 37°C; monomer to nonamer and larger oligomers; details: remark: other sources report otherwise
T2 chain: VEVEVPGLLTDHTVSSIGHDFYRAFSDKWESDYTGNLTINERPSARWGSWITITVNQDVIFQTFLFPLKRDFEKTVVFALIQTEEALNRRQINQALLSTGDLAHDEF

[9] = molecular target: T2, WT CsgE (6x-His-tagged, E. coli MC4100) …; test: SEC; Superdex 200 10/300, 50 mM potassium phosphate, 150 mM NaCl, pH 7.4; purified CsgE (20 µM) immediately after purification and kept at 4°C for up to 20 days; monomer to nonamer; details: remark: other sources report otherwise
[10] = molecular target: T2, WT CsgE (6x-His-tagged, E. coli MC4100) …; test: native gel or EMSA; native PAGE of purified CsgE (monomer peak) incubated at 4°C or 25°C for various times; details: remark: other sources report otherwise
[11] = molecular target: T2, WT CsgE (6x-His-tagged, E. coli MC4100) …; test: SEC; Superdex 200 10/300, 50 mM potassium phosphate, 150 mM NaCl, pH 7.4; purified CsgE (20 µM) incubated at 25°C for 5 h to 28 h; monomer to nonamer; details: remark: other sources report otherwise
[12] = molecular target: T2, WT CsgE (6x-His-tagged, E. coli MC4100) …; test: SEC-MALS; Superdex 200 Increase 10/300 GL, 0.3 ml/min; protein at 2 mg/ml in 50 mM KHPO4 pH 7.3 with and without 150 mM NaCl; details: remark: other sources report otherwise

T1 sequence (P28307 21-151): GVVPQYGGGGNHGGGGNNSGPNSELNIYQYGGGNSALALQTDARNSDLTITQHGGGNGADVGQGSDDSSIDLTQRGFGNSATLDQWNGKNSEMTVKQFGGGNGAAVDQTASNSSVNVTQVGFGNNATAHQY
Chain of 6x-His-tagged CsgA lacking the 20-residue N-terminal signal sequence (E. coli) (P28307 21-151): as above

CsgE W48A (natural protein)
stoichiometry N [1]: 9

CsgE F79A (natural protein)
stoichiometry N [2]: 9

CsgE R47A (natural protein)
Thioflavin T fluorescence of CsgA polymerization (25°C, 48 h): T50 of CsgA with CsgE R47A relative to WT CsgE (% decrease of T50 relative to WT CsgE) [3]: > 50

B1: WT CsgE (6x-His-tagged, E. coli MC4100) (natural protein, UniProt P0AE95 23-129, looked up)
chain: VEVEVPGLLTDHTVSSIGHDFYRAFSDKWESDYTGNLTINERPSARWGSWITITVNQDVIFQTFLFPLKRDFEKTVVFALIQTEEALNRRQINQALLSTGDLAHDEF
notes: CsgE, periplasmic curli accessory protein of E. coli MC4100; add 21 for the precursor numbering of P0AE95; 15N-labeled (M9 minimal medium with [15N]ammonium sulfate) for NMR; Monomer peak of the S-100 column was used for SEC and native PAGE; also called wild-type CsgE; recombinant WT CsgE
loss of monomer peak area within 1 h at 37°C (P0AE95 [4]): the monomeric peak loses >65% of its area within 1 h of incubation
nonamer peak area as percent of monomer peak area, after 5 h at 25°C (P0AE95 [5]): the nonamer peak area was approximately 20% of the monomer peak area
nonamer peak area as percent of monomer peak area, after 28 h at 25°C (P0AE95 [5]): the nonamer peak area was approximately 40% of the monomer peak area
high-molecular-weight aggregate, percent of the loaded mass (P0AE95 [6]): a large, high-molecular-weight aggregate representing 32% of the loaded mass
binding result [7]: binds

B2: WT CsgE (6x-His-tagged, E. coli MC4100), P0AE95 23-129 (natural protein)
chain: VEVEVPGLLTDHTVSSIGHDFYRAFSDKWESDYTGNLTINERPSARWGSWITITVNQDVIFQTFLFPLKRDFEKTVVFALIQTEEALNRRQINQALLSTGDLAHDEF
stoichiometry N [8]: 9
monomer, percent of peak area [9]: > 90%
stoichiometry N [9]: 9
stoichiometry N [10]: 9
stoichiometry N [11]: 9
small oligomer, percent of the mass [12]: 2%
